Experimental data reported in US20100184658A1 (published 2010).

Assays:
Experiment in all cases: cell-based or functional assay
AKT2 (PKB beta) = AKT2 (PKB beta) (human (printed as (h)), UniProt P31751 1-481, limits assumed)
[1] = target: T1, PHKG2 Phosphorylase kinase, gamma 2 (UniProt P15735 1-406, limits assumed)
T1 sequence (looked up): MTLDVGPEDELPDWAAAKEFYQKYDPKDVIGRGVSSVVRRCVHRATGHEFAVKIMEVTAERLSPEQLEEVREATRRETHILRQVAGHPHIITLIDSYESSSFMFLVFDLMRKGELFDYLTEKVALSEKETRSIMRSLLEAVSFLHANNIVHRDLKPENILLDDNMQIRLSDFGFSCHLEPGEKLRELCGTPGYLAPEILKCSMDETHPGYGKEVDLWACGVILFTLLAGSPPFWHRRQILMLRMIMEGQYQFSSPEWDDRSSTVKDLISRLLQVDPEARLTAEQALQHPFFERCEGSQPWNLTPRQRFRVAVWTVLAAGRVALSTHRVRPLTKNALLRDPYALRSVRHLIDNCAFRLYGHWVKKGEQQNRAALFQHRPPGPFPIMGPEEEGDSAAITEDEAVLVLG

IRAK4 (interleukin-1 …) = target: T2, IRAK4 (interleukin-1 receptor-associated kinase 4) (UniProt Q9NWZ3 1-460, limits assumed)
T2 sequence (looked up): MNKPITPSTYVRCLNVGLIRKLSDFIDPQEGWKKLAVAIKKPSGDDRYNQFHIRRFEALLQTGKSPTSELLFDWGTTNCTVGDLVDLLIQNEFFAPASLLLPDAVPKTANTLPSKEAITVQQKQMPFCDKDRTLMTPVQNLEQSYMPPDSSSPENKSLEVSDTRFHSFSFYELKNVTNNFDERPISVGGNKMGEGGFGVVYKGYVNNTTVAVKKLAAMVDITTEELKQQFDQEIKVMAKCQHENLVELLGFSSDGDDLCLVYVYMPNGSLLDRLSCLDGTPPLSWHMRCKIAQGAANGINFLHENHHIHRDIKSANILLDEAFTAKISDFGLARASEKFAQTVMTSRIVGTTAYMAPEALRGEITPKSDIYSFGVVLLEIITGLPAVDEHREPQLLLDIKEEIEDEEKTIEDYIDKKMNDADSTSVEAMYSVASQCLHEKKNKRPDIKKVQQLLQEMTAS

PRKX = target: T3, PRKX (UniProt P51817 1-358, limits assumed)
T3 sequence (looked up): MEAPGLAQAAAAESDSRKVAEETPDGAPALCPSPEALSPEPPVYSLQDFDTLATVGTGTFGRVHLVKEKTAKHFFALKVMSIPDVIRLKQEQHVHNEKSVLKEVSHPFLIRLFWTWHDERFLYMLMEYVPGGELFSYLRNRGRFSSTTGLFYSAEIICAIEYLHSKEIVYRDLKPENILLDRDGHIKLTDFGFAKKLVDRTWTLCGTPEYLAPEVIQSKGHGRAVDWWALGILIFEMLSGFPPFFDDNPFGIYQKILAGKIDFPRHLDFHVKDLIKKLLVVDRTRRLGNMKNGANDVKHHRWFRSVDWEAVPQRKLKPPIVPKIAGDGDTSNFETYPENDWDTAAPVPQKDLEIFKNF

[2] = target: CAMK1D (CaMKI delta) Calcium/calmodulin-dependent protein kinase I delta (UniProt Q8IU85 1-385, limits assumed)
CAMK1D (CaMKI delta) Calcium/calmodulin-dependent protein kinase I delta, sequence (Q8IU85 whole entry, stated change not applied): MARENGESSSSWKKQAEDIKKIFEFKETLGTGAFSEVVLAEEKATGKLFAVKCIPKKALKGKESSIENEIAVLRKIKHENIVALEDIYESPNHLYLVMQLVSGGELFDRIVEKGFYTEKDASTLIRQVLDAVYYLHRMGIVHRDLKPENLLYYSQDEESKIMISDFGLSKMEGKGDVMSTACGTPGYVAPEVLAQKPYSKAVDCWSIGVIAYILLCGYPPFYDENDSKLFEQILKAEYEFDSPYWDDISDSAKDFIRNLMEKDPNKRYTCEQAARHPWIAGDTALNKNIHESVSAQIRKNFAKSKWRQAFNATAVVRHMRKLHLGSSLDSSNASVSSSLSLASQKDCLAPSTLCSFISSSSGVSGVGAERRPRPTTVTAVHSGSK

[3] = target: T4, TAOK2 (TAO1) TAO kinase 2 (UniProt Q9UL54 1-314, limits assumed)
T4 sequence (looked up): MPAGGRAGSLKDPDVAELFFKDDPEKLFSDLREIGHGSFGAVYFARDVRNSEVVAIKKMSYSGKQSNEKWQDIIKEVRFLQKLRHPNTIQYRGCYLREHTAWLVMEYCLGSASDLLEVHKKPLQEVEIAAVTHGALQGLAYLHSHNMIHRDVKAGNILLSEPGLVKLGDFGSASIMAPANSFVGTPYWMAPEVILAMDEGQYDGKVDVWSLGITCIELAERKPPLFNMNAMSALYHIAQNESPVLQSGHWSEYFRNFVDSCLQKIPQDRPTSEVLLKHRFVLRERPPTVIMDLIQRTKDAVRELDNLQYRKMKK

[4] = target: MAPK8 (JNK1) Mitogen-activated protein kinase 8 (UniProt P45983 1-427, limits assumed)
MAPK8 (JNK1) Mitogen-activated protein kinase 8, sequence (P45983 whole entry): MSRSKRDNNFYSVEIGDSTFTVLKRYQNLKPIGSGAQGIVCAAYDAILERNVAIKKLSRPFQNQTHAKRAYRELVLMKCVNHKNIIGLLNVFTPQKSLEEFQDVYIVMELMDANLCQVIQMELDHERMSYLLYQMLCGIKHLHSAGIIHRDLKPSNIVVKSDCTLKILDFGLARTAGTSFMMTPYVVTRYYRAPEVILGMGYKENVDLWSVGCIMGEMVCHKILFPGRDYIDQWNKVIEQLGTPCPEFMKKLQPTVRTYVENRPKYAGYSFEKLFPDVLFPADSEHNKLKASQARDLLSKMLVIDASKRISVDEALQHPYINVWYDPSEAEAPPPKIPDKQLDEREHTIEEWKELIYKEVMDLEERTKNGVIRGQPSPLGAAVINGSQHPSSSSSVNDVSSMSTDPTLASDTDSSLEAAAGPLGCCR

[5] = target: TEK (Tie2) Tyrosine kinase, endothelial (UniProt Q02763 771-1124, limits assumed)
TEK (Tie2) Tyrosine kinase, endothelial, sequence (Q02763 771-1124 limits assumed): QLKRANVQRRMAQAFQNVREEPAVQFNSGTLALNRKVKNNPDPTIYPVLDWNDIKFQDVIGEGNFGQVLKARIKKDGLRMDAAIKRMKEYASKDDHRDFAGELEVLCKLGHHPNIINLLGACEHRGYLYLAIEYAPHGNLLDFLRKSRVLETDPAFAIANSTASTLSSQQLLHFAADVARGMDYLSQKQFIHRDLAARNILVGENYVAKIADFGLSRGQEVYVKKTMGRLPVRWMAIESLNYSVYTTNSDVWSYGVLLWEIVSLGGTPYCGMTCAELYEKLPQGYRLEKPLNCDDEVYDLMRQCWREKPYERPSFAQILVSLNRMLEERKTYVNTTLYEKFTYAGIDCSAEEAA

MAPKAPK3 = MAPKAPK3 (UniProt Q16644 1-382, limits assumed)
MAPKAPK3, sequence (Q16644 whole entry): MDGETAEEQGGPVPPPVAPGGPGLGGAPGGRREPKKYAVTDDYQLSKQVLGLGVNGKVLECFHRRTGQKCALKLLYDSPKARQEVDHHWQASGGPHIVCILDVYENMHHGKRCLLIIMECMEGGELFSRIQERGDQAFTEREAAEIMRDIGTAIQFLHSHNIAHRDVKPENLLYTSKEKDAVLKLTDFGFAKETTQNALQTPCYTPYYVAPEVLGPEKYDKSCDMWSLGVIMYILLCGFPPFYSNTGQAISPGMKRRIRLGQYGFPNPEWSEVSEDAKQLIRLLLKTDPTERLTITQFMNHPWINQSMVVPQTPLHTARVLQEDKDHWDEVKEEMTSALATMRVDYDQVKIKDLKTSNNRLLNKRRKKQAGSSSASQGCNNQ

[6] = target: T5, STK3 (MST2) Serine/threonine kinase 3 (STE20 homolog, yeast) (UniProt Q13188 1-491, limits assumed)
T5 sequence (looked up): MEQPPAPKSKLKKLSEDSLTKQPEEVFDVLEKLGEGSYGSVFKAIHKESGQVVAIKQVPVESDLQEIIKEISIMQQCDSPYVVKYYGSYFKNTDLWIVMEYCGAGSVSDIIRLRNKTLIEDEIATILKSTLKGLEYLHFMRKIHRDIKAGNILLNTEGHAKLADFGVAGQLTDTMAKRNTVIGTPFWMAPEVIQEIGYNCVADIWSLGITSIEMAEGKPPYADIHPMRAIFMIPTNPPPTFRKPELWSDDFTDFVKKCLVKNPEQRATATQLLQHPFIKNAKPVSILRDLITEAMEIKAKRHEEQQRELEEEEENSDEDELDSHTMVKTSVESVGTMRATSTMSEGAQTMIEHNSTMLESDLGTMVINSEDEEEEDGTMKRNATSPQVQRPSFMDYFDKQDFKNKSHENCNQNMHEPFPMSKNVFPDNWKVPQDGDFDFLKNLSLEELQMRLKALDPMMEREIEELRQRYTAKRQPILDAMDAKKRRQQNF

PKN1 (PRK1) = PKN1 (PRK1) (UniProt Q16512 1-942, limits assumed)
PKN1 (PRK1), sequence (Q16512 whole entry): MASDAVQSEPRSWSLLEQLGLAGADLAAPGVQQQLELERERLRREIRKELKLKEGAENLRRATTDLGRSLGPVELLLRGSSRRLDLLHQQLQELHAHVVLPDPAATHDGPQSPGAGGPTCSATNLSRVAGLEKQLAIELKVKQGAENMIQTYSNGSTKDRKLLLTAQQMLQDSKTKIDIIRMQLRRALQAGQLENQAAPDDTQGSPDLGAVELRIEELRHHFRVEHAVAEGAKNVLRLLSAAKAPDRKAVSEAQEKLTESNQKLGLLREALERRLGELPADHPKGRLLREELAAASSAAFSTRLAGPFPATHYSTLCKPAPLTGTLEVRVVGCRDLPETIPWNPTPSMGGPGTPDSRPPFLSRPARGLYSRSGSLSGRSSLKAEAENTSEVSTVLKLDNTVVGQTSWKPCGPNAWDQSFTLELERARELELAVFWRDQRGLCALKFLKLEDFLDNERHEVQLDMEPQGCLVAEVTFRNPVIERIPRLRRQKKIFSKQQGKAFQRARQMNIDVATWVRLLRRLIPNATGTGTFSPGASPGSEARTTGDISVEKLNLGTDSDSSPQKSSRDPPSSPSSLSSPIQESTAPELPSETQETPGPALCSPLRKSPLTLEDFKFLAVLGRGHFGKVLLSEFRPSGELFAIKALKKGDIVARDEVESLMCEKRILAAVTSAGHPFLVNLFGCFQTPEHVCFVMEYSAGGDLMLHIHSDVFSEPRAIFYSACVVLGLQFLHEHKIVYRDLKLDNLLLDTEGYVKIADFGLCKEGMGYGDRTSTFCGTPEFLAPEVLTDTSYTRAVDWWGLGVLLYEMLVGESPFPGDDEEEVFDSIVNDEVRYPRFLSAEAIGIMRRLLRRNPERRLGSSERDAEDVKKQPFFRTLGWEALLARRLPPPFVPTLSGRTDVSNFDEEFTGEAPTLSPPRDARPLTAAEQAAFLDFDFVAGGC

AKT2 (PKB beta) (human (printed as (h)), UniProt P31751 1-481, limits assumed), sequence (P31751 whole entry): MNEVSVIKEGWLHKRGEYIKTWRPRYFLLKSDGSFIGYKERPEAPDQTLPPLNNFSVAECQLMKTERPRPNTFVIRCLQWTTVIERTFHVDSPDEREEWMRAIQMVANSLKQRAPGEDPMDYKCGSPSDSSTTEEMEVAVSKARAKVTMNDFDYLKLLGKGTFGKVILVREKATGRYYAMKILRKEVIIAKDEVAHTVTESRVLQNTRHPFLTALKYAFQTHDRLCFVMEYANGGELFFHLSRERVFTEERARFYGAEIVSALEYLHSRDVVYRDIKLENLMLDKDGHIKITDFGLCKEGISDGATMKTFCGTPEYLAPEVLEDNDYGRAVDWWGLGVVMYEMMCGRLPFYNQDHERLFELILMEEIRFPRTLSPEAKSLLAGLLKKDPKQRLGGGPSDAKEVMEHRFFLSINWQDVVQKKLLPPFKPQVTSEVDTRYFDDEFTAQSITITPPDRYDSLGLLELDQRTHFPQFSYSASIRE

B1: D3 peptide (peptide)
peptide: SGRPPMIVWFNRPFLIAVSHTHGQTILFMAKVINPVGA
AKT2 (PKB beta)
  % Inhibition mean: 67.7%
[1]
  % Inhibition mean: 87%
IRAK4 (interleukin-1 …)
  % Inhibition mean: 96%
PRKX
  % Inhibition mean: 100%
[2]
  % Inhibition mean: 98%
[3]
  % Inhibition mean: 100%
[4]
  % Inhibition mean: 89%
[5]
  % Inhibition mean: 67%
MAPKAPK3
  % Inhibition mean: 64.1%
[6]
  % Inhibition mean: 90.4%
PKN1 (PRK1)
  % Inhibition mean: 64%
